Assays:
[1] = molecular target: OsOTUB1-cat (OsOTUB1 residues 74 to 324, catalytic domain) (Oryza sativa); assay: cross-linking; 20 µM DUB with 100 µM Ub-PA in gel filtration buffer (50 mM Tris-HCl pH 8, 150 mM NaCl, 2 mM DTT), 37 °C, samples at time points, SDS-PAGE, Coomassie
[2] = molecular target: OsOTUB1-cat (OsOTUB1 residues 74 to 324, catalytic domain) (Oryza sativa)

Row | Substance | percent of Ub-PA crosslinked in 1 min [1] [%] | KM of OsOTUB1-cat for the variant, fold reduction of affinity against Met1-diUb WT (Michaelis-Menten kinetics by HPLC, two replicates) [2] [fold]
1 | C-terminally propargylated Ub (Ub-PA) | > 90 | –
2 | Met1-diUb Q2H^prox (from UniProt P0CG48 1-76) (natural protein) | – | 1.45 to 1.58
3 | Met1-diUb Q2N^prox (from UniProt P0CG48 1-76) (natural protein) | – | 1.52 to 1.91

Second part, the substance after the results:

Row | percent of Ub-PA crosslinked in 1 min [1] [%] | KM of OsOTUB1-cat for the variant, fold reduction of affinity against Met1-diUb WT (Michaelis-Menten kinetics by HPLC, two replicates) [2] [fold] | Substance
4 | – | 3.65 to 4.3 | Met1-diUb Q2A^prox (from UniProt P0CG48 1-76) (natural protein)
5 | – | 4.2 to 6.23 | Met1-diUb Q2E^prox (from UniProt P0CG48 1-76) (natural protein)
